Reference: patent US20110002939A1 (BIOCON, published 2011)

Molecular target: T1, rhCD6FC/Chimera (R and D systems) (human, UniProt P30203 25-398)
T1 construct: Bought reagent; also called CD6 receptor; Fc part of the bought chimera not given
T1 sequence (looked up): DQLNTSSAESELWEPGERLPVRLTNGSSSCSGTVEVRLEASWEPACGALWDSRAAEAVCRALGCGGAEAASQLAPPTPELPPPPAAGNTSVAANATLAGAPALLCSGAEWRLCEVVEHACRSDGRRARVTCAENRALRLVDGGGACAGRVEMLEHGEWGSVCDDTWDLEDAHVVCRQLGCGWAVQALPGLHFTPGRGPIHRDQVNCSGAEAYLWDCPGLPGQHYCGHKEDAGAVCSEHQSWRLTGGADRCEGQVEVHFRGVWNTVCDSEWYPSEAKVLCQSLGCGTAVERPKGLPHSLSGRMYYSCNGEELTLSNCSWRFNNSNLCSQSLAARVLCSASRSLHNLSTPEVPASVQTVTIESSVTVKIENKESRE
Experiment: ELISA, plate-bound rhCD6-Fc, T1h 0.2 mg/ml with varying rhALCAM-Fc, anti human IgG (Fab)2 ALP detection
Description: The rhCD6FC/Chimera (R and D systems) (100 μg/ml) was diluted in coating buffer and 100 μl was added to each well of a 96 well Nunc-Maxisorp plate. The plate was then incubated at 4° C. overnight. The Plate was washed thrice with PBS Tween 20. Subsequently, 200 μl of blocking solution (2% BSA+0.1%Tween 20 in 1× PBS) was added and incubated for 1 hour at 37° C. After incubation, the plate was washed again with PBS Tween thrice, followed by the addition of T1h monoclonal antibody (0.2 mg/ml) and .rhALCAMFc (R and D systems) at varying concentrations. This was then incubated for an hour at 37° C. The plate was washed 3 times subsequently with PBS Tween. To the wells 200 μl of anti human IgG (Fab)₂ ALP (1:20000) diluted in blocking buffer was added and incubated for 1 hour at 37° C. The plate was washed thrice with PBS tween and 200 μl of p-Nitrophenyl Phosphate (PNPP) substrate is added to each well and incubated at 37° C. till colour develops around 15 minutes. Reading was taken at 405 nm using a BIOTEK Micro Plate Reader.

binding result: binds
B1: T1h, humanized IgG1 isotype anti-CD6 monoclonal antibody (antibody, V domains shown)
VH: EVQLVESGGGLVKPGGSLKLSCAASGFKFSRYAMSWVRQAPGKRLEWVATISSGGSYIYYPDSVKGRFTISRDNVKNTLYLQMSSLRSEDTAMYYCARRDYDLDYFDSWGQGTLVTVSS
VL: DIQMTQSPSSLSASVGDRVTITCKASRDIRSYLTWYQQKPGKAPKTLIYYATSLADGVPSRFSGSGSGQDYSLTISSLESDDTATYYCLQHGESPFTLGSGTKLEIK
notes: also called humanized IOR-T1; sT1h
